What was measured:
tumour cells = experiment: Inherent tumoricidal effect of oleate salts
[1] = system: Human lung carcinoma cells (A549, ATCC); experiment: Cell death assay (ATPlite, PrestoBlue, trypan blue exclusion); assay type: cell-based
Method: Human lung carcinoma cells (A549, ATCC) were cultured in RPMI-1640 with non-essential amino acids (1:100), 1 mM sodium pyruvate, 50 μg/ml Gentamicin and 5-10% fetal calf serum (FCS) at 37° C., 5% CO2. For cell death experiment, cells were grown on 96-well plate (2×10^4/well, Tecan Group Ltd) overnight. Cells were incubated with biologically active complexes obtained in Example 1 at dosages equivalent to either 7, 21 or 35 μM peptide in serum-free RPMI-1640 at 37° C. FCS was added after 1 hour. Cell death was quantified 3 hours after peptide-oleate treatment by three biochemical methods including 1) estimation of cellular ATP levels using luminescence based ATPlite™ kit (Perkin Elmer) 2) Presto Blue fluorescence staining (Invitrogen, A13262) and 3) trypan blue exclusion assay. Fluorescence and luminescence were measured using a microplate reader (Infinite F200, Tecan).

cells = conditions: Vukojevic et al. Langmuir 2010; cited from earlier work
bladder cancer [2] = conditions: murine bladder cancer model; cited from earlier work
bladder cancer [3] = conditions: local instillations; cited from earlier work
tumor cells = conditions: early in vitro experiments; cited from earlier work
glioblastoma xenograft = conditions: rat glioblastoma xenograft model; cited from earlier work
skin papillomas = conditions: topical administration, placebo controlled clinical study; cited from earlier work

CCCCCCCC/C=C\CCCCCCCC(=O)[O-].[Na+] [sodium oleate]
inherent tumoricidal effect (tumour cells): appear to have some inherent tumoricidal effect

B1: BAMLET: bovine alpha-lactalbumin (700 μM) and sodium oleate (3.5 mM) dissolved in Phosphate Buffered Saline by vortexing (protein, UniProt P00711 20-142, looked up)
Alpha-lactalbumin: EQLTKCEVFRELKDLKGYGGVSLPEWVCTTFHTSGYDTQAIVQNNDSTEYGLFQINNKIWCKDDQNPHSSNICNISCDKFLDDDLTDDIMCVKKILDKVGINYWLAHKALCSEKLDQWLCEKL
modifications: complex with sodium oleate
notes: bovine alpha-lactalbumin (700 μM) and sodium oleate (3.5 mM) dissolved in Phosphate Buffered Saline by vortexing
activity after lyophilisation of the complex ([1]; after lyophilisation): removed the activity | tumour cell death activity of freshly prepared solution ([1]; solution in PBS vortexed at room temperature, FIG. 4): biologically active and killed A549 lung carcinoma cells in a dose dependent manner

B2: complexes using equine lysozyme and oleic acid: complexes using equine lysozyme and oleic acid (Vukojevic et al.) (protein, UniProt P11376 1-129, looked up)
Lysozyme C, milk isozyme: KVFSKCELAHKLKAQEMDGFGGYSLANWVCMAEYESNFNTRAFNGKNANGSSDYGLFQLNNKWWCKDNKRSSSNACNIMCSKLLDENIDDDISCAKRVVRDPKGMSAWKAWVKHCKDKDLSEYLASCNL
modifications: complex with oleic acid
cell death (cells): found to produce cell death

B3: HAMLET (protein, UniProt P00709 20-142, looked up)
Alpha-lactalbumin: KQFTKCELSQLLKDIDGYGGIALPELICTMFHTSGYDTQAIVENNESTEYGLFQISNKLWCKSSQVPQSRNICDISCDKFLDDDITDDIMCAKKILDIKGIDYWLAHKALCTEKLEQWLCEKL
modifications: complex with oleic acid
therapeutic efficacy in bladder cancer (bladder cancer [2]): Therapeutic efficacy | tumor cell death in bladder cancer patients (bladder cancer [3]): caused rapid death of tumor cells but not of healthy tissue surrounding the tumor | anti-tumor activity in vitro (tumor cells): broad anti-tumor activity with a high degree of tumor selectivity | cell death in healthy brain tissue (glioblastoma xenograft): without evidence of cell death in healthy brain tissue | tumor progression and survival (glioblastoma xenograft): delayed tumor progression and led to increased survival | effect on skin papillomas (skin papillomas): removed or reduced the size of skin papillomas

Reference: US12331073B2, “Preparation of biologically active complexes” (priority 2017, dated 2025)
